Laboratory results taken from FireProtDB (doi:10.1093/protein/14.11.891).

B1: Sialidase, P29768 (parent)
chain: MTVEKSVVFKAEGEHFTDQKGNTIVGSGSGGTTKYFRIPAMCTTSKGTIVVFADARHNTASDQSFIDTAAARSTDGGKTWNKKIAIYNDRVNSKLSRVMDPTCIVANIQGRETILVMVGKWNNNDKTWGAYRDKAPDTDWDLVLYKSTDDGVTFSKVETNIHDIVTKNGTISAMLGGVGSGLQLNDGKLVFPVQMVRTKNITTVLNTSFIYSTDGITWSLPSGYCEGFGSENNIIEFNASLVNNIRNSGLRRSFETKDFGKTWTEFPPMDKKVDNRNHGVQGSTITIPSGNKLVAAHSSAQNKNNDYTRSDISLYAHNLYSGEVKLIDDFYPKVGNASGAGYSCLSYRKNVDKETLYVVYEANGSIEFQDLSRHLPVIKSYN

Variants of: B1
Details: Salmonella typhimurium (strain LT2 / SGSC1412 / ATCC 700720), pH 7, CD, Potassium phosphate 10 mM, reversible: yes, structure 1DIL, whole UniProt chain shown; for ddG of mutation (higher = less stable) / denaturant midpoint (higher = more stable) / unfolding free energy: 25 °C, GdnHCl; for Tm / change of melting temperature, mutant - wild type (higher = more stable): Thermal

Variant	ddG of mutation (higher = less stable)	denaturant midpoint (higher = more stable)	unfolding free energy	Tm	change of melting temperature, mutant - wild type (higher = more stable)
A53L	-0.81 kcal/mol	1.64 M	5.05 kcal/mol	62 °C	5 °C
A69V	-0.62 kcal/mol	1.42 M	4.86 kcal/mol	60 °C	3 °C
